# Test results as given in patent US20220010003A1 (Boehringer Ingelheim, published 2022).
# T1: recombinant mouse periostin (mouse, UniProt Q62009-2 24-811, limits assumed)
# T1 construct: also called MoPOSTN
# T1 sequence (looked up): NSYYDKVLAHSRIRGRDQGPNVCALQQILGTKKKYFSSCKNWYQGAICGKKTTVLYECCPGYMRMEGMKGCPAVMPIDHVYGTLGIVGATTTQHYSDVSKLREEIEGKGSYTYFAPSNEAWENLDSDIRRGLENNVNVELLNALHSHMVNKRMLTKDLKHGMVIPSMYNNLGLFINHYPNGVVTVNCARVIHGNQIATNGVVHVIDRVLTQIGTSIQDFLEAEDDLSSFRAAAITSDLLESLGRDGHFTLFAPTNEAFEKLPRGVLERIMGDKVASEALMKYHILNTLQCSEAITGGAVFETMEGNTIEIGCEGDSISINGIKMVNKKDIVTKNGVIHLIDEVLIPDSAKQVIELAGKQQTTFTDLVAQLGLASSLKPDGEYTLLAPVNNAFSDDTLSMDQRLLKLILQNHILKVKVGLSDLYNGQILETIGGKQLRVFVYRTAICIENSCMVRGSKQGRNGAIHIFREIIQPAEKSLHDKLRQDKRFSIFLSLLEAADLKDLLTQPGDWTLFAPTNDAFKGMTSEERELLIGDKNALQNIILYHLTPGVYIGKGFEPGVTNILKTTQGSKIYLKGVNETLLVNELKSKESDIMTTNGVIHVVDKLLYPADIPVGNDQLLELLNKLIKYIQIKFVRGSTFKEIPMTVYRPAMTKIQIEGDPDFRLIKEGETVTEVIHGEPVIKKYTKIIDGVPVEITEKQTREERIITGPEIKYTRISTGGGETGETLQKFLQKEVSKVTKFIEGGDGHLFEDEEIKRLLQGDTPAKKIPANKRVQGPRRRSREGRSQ
# B1: NB0828 (antibody, V domains shown)
# VH: QVQLVQSGAEVKKPGASVKVSCKASGYTFTSYGISWVRQAPGQGLEWMGWISAYNGNTNYAQKLQGRVTMTTDTSTSTAYMELRSLRSDDTAVYYCARDMLVVPFDYWGQGTLVTVSS
# VL: QSVLTQSSSASGTPGQTVTVSCSGSSSDIGSNRVNWYQQLPGTAPKLLIYSNDQRPSGVPDRFSGSKSGTSASLAISGLQSADEADYYCAAWDDSLSTYVFGSGTKVTVL
# Target: T1, recombinant mouse periostin
# Assay: binding ELISA, periostin coated
binder,measurement,value
B1,EC50,0.15 nM
